Reference: patent publication US20220064276A1 (SCHOLAR ROCK, published 2022)
Where “and” joins values, the source holds several entries; their conditions need not be identical. Equal entries are not always repeated. Where two headings read alike, the source gives them in different places.

Key:
[1] = molecular target: T1, LTBP-proTGFβ1: transfected human proTGFβ1 presented by endogenous LTBP1/3 of LN229 cells (human); experiment: cell-based or functional assay
[2] = molecular target: T2, mouse LTBP1-proTGFβ1 complex (mouse, UniProt Q8CG19 339-1712; P04202 30-390); experiment: cell-based or functional assay
[3] = molecular target: T3, human LTBP1-proTGFβ1 complex (human, UniProt Q14766 347-1721; P01137 30-390); experiment: Octet BLI, IgG captured
T3 construct: Large latent complex: one presenting molecule disulfide-linked to a proTGFβ1 dimer; also called Hu LTBP1-proTGFβ1; huLTBP1 proTGFβ1
Description: (§1) Binding affinities of the optimized antibodies were measured by Octet against human LTBP1-proTGFβ1, human LTBP3-proTGFβ1, mouse LTBP1-proTGFβ1, mouse LTBP3-proTGFβ1, and GARP-proTGFβ1 complexes, essentially as described in Example 6. […] The antigens were allowed to associate for 3 minutes followed by a 5-minute dissociation. Kinetics buffer (ForteBio®) was used throughout the experiment, and KD was determined using a 1:1 fitting model for each antibody antigen pair.

[4] = molecular target: T4, human LTBP3-proTGFβ1 complex (human, UniProt Q9NS15 44-1303; P01137 30-390, limits assumed); experiment: Octet BLI, IgG captured
T4 construct: Exemplary entries; also called Hu LTBP3-proTGFβ1; huLTBP3 proTGFb1
Description: as §1

[5] = molecular target: T2, mouse LTBP1-proTGFβ1 complex; experiment: Octet BLI, IgG captured
Description: as §1

[6] = molecular target: T5, mouse LTBP3-proTGFβ1 complex (mouse, UniProt Q61810 41-1245; P04202 30-390, limits assumed); experiment: Octet BLI, IgG captured
T5 construct: Exemplary entries; also called Mo LTBP3-proTGFβ1; Murine LTBP3 proTGFb1
Description: as §1

[7] = molecular target: T6, human GARP-proTGFβ1 complex (human, UniProt Q14392 18-627; P01137 30-390, limits assumed); experiment: Octet BLI, IgG captured
T6 construct: Exemplary entries; also called Hu GARP-proTGFβ1; huGARP proTGFb1
Description: as §1

[8] = molecular target: T6, human GARP-proTGFβ1 complex; experiment: Octet BLI, Table 10 (repeats Table 9)
Description: as §1
Table 9 presents the binding profile and affinity data for the indicated LTBP complex-specific antibodies (IgG1-agly) identified from the light chain optimization cycle 3, determined by Octet.

[9] = molecular target: T1, LTBP-proTGFβ1: transfected human …; experiment: cell-based or functional assay; remark: listed apart in the source
[10] = molecular target: T2, mouse LTBP1-proTGFβ1 complex; experiment: cell-based or functional assay; remark: listed apart in the source
[11] = molecular target: T6, human GARP-proTGFβ1 complex; experiment: Octet (bio-layer interferometry), response at 200 nM antigen; 0.1 nm cutoff designates meaningful binding
Description: This experiment was performed at 200, 100, 50, and 25 nM human GARP proTGFb1 and human LTBP1 proTGFbl. […] Surface plasmon resonance (SPR)-based assays

[12] = molecular target: T1, LTBP-proTGFβ1: transfected human …; experiment: cell-based or functional assay; remark: listed apart in the source
[13] = molecular target: T2, mouse LTBP1-proTGFβ1 complex; experiment: cell-based or functional assay; remark: listed apart in the source

T1 sequence (P01137 30-390): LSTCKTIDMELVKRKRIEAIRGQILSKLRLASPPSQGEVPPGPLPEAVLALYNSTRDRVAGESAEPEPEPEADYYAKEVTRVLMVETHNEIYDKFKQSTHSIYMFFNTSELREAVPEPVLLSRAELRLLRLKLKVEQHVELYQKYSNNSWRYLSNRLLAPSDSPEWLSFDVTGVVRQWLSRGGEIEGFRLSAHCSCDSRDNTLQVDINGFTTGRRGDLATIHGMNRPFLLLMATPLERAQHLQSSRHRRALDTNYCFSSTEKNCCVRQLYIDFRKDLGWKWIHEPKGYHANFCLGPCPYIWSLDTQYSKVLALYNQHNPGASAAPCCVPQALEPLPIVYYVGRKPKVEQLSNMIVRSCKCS
T3 sequence (Q14766 347-1721 limits assumed, chain 1 of 2): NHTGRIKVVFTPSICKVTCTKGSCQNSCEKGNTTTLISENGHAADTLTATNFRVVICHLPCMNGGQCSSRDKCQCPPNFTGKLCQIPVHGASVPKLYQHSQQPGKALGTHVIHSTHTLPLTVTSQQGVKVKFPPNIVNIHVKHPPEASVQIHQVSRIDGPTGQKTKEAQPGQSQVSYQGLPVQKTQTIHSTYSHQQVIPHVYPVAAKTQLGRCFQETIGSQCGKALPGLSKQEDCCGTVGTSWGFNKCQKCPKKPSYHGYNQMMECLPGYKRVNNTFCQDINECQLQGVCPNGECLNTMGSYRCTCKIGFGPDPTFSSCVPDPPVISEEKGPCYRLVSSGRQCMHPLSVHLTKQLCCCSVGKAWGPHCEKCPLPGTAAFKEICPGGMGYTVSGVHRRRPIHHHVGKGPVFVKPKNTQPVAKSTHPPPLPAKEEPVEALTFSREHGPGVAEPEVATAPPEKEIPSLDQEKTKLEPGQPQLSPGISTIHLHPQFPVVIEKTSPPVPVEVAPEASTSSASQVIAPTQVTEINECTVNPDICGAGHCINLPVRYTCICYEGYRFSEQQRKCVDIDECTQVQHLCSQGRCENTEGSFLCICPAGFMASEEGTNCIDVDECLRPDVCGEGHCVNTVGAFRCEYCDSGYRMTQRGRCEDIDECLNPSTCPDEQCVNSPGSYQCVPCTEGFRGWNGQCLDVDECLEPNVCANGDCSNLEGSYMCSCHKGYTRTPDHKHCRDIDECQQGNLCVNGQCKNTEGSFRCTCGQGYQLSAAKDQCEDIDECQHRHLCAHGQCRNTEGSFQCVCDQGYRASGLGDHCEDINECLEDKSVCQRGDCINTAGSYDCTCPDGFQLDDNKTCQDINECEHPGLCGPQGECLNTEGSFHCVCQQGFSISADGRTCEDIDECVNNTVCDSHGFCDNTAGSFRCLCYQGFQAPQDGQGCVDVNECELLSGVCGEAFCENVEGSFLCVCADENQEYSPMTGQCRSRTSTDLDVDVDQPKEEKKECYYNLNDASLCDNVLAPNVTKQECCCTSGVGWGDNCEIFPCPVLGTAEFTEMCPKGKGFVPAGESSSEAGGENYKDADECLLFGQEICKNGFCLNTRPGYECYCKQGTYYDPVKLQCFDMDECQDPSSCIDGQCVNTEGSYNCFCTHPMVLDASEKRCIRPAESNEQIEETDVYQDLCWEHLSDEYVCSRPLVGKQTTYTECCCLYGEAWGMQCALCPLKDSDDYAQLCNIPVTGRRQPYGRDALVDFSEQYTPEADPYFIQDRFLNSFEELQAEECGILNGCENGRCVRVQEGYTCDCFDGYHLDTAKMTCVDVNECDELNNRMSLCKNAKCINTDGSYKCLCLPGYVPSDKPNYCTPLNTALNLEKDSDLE
T3 sequence (P01137 30-390 limits assumed, chain 2 of 2): as the sequence (P01137 30-390) above
T4 sequence (Q9NS15 44-1303 limits assumed, chain 1 of 2): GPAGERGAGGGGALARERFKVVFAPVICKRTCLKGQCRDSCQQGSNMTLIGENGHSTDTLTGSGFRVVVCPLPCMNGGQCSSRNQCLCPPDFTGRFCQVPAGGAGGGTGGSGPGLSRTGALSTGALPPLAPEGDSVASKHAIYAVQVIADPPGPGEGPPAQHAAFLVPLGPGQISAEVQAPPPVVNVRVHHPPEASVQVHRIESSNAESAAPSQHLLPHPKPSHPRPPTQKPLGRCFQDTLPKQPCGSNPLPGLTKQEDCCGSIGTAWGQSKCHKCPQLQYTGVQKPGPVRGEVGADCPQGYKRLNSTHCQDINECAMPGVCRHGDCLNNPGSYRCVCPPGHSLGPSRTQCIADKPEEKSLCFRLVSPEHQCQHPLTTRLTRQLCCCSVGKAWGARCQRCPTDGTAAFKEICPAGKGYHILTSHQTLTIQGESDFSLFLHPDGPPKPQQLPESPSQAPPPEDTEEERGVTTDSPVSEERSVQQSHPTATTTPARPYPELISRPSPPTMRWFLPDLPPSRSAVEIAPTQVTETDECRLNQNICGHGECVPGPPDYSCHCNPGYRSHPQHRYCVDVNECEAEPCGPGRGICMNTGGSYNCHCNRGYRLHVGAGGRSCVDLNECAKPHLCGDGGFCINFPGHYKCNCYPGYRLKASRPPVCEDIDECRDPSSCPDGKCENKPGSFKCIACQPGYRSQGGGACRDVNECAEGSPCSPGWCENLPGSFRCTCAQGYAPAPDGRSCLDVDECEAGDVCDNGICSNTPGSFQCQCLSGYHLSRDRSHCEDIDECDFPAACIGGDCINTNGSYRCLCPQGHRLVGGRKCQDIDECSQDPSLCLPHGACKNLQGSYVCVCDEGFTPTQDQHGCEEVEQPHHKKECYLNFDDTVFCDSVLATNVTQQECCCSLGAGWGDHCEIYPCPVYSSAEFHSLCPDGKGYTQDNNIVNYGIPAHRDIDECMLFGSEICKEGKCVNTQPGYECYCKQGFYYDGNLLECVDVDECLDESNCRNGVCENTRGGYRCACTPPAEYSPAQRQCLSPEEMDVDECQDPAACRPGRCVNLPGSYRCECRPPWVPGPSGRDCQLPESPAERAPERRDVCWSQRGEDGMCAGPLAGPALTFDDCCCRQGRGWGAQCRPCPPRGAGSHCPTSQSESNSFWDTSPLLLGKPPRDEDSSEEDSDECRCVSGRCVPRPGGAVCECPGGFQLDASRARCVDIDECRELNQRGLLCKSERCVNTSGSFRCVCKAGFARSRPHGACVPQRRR
T4 sequence (P01137 30-390 limits assumed, chain 2 of 2): as the sequence (P01137 30-390) above
T5 sequence (Q61810 other isoform, or with tags, fused parts or gaps limits assumed, chain 1 of 2): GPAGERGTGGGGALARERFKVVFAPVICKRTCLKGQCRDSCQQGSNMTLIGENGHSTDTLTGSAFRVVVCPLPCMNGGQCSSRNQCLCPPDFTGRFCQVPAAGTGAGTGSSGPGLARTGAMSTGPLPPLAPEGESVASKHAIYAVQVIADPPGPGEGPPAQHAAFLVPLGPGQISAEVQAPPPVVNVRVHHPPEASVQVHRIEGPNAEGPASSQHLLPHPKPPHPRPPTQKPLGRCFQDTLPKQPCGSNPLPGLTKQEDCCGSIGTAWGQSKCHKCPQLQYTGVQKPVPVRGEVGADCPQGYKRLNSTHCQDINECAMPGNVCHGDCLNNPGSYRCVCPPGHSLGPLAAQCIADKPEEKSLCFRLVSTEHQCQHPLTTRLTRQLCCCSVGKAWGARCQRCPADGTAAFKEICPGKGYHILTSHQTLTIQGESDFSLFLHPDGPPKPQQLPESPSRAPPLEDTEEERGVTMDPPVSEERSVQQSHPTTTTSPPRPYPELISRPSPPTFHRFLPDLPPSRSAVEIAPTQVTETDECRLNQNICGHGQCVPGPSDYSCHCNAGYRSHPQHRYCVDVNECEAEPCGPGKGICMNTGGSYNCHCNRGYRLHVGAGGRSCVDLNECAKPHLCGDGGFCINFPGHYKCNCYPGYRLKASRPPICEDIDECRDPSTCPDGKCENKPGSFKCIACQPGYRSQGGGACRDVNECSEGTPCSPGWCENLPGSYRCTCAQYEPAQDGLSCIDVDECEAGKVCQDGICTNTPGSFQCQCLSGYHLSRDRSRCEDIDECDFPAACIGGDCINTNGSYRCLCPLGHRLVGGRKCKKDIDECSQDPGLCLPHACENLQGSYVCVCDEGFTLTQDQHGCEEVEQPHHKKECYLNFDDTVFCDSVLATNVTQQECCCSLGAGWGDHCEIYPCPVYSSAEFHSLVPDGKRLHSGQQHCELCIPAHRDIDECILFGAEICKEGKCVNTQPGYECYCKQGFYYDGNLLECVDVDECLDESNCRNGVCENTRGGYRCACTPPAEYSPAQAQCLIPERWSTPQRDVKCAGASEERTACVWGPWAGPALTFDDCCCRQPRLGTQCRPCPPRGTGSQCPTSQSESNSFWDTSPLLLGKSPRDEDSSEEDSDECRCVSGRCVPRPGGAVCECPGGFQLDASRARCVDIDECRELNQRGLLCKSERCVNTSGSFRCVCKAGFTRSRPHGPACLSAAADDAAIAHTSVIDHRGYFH
T5 sequence (P04202 30-390 limits assumed, chain 2 of 2): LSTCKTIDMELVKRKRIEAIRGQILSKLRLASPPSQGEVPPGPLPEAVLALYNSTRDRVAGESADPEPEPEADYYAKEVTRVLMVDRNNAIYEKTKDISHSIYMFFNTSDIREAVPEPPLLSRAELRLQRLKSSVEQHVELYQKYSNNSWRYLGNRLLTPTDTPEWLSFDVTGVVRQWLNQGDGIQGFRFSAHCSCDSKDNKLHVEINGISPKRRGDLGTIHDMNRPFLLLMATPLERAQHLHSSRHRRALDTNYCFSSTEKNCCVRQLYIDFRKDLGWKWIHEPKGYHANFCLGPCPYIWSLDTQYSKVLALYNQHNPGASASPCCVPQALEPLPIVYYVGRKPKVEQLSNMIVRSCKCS

Row | Binder | IC50, endogenous hLTBP assay (CAGA12 luciferase) [1] | IC50, mLTBP1 assay (CAGA12 luciferase) [2] | Kd [3] | koff [3] | kon [3] | Kd [4] | koff [4] | kon [4] | Kd [5] | Kd [6] | Kd [7] | Kd [8] | IC50, endogenous hLTBP assay (CAGA12 luciferase) [9] | IC50, mLTBP1 assay (CAGA12 luciferase) [10] | binding result [11] | IC50, endogenous hLTBP assay (CAGA12 luciferase) [12] | IC50, mLTBP1 assay (CAGA12 luciferase) [13]
1 | SR-AB31 (antibody, IgG1, V domains shown, Cycle 3, lineage SR-AB22) VH: QVQLVESGGGVVQPGRSLRLSCAASGFTFRSYVMHWVRQAPGKGLEWVAVISHEGSLKYYADSVKGRFTISRDNSKNTLYLQMNSLRAEDTAVYYCAVPRIAARRGGFGYWGQGTLVTVSS VL: NFMLTQPHSVSESPGKTVTISCTRSSGNIDNNYVQWYQQRPGSSPTTVIYEDNQRPSGVPDRFSGSIDSSSNSASLTISGLKTEDEADYYCQSYDFNNQGVVFGGGTKLTVL | 1.26 nM and 1.56 nM | 0.431 nM | 0.412 nM | 9.89e-05 s⁻¹ | 240000 M⁻¹ s⁻¹ | 0.221 nM | 6.81e-05 s⁻¹ | 308000 M⁻¹ s⁻¹ | 0.682 nM | 0.589 nM | 11.2 nM | 11.2 nM | – | – | – | – | –
2 | SR-AB40 (antibody, IgG1, V domains shown, Cycle 3, lineage SR-AB23) VH: QVQLVESGGGVVQPGRSLRLSCAASGFTFRSYVMHWVRQAPGKGLEWVAVISHEGSLKYYADSVKGRFTISRDNSKNTLYLQMNSLRAEDTAVYYCARPRIAARRGGFGYWGQGTLVTVSS VL: NFMLTQPHSVSESPGKTVTISCTRSSGNIDNNYVQWYQQRPGSSPTTVIYEDNQRPSGVPDRFSGSIDSSSNSASLTISGLKTEDEADYYCQSYDYSNQGVVFGGGTKLTVL | – | – | 0.401 nM | 6e-05 s⁻¹ | 150000 M⁻¹ s⁻¹ | 0.333 nM | 6.07e-05 s⁻¹ | 182000 M⁻¹ s⁻¹ | 1.08 nM | 1.16 nM | – | – | 2.1 nM | 0.333 nM | no binding (tested: 200 nM) | – | –
3 | SR-AB37 (antibody, IgG1, V domains shown, Cycle 3, lineage SR-AB22) VH: QVQLVESGGGVVQPGRSLRLSCAASGFTFRSYVMHWVRQAPGKGLEWVAVISHEGSLKYYADSVKGRFTISRDNSKNTLYLQMNSLRAEDTAVYYCAVPRIAARRGGFGYWGQGTLVTVSS VL: NFMLTQPHSVSESPGKTVTISCTRSSGLIDDNYVQWYQQRPGSSPTTVIYEDNQRPSGVPDRFSGSIDSSSNSASLTISGLKTEDEADYYCQSYDSDLQRVVFGGGTKLTVL | 1.93 nM | 0.543 nM | 0.328 nM | 0.000118 s⁻¹ | 360000 M⁻¹ s⁻¹ | 0.139 nM | 7.58e-05 s⁻¹ | 545000 M⁻¹ s⁻¹ | 0.384 nM | 0.325 nM | 36.1 nM | 36.1 nM | – | – | – | – | –
4 | SR-AB38 (antibody, IgG1, V domains shown, Cycle 3, lineage SR-AB22) VH: QVQLVESGGGVVQPGRSLRLSCAASGFTFRSYVMHWVRQAPGKGLEWVAVISHEGSLKYYADSVKGRFTISRDNSKNTLYLQMNSLRAEDTAVYYCAVPRIAARRGGFGYWGQGTLVTVSS VL: NFMLTQPHSVSESPGKTVTISCTRSSGSIDNNYVQWYQQRPGSSPTTVIYEDFIRPSGVPDRFSGSIDSSSNSASLTISGLKTEDEADYYCQSYDDDLQGVVFGGGTKLTVL | – | – | 0.357 nM | 0.000117 s⁻¹ | 327000 M⁻¹ s⁻¹ | 0.145 nM | 7.26e-05 s⁻¹ | 502000 M⁻¹ s⁻¹ | 0.391 nM | 0.331 nM | 8.42 nM | 8.42 nM | – | – | – | – | –
5 | SR-AB63 (antibody, IgG1, V domains shown, Cycle 3, lineage SR-AB26) VH: QLQLQESGPGLVKPSETLSLTCTVSGGSIRSSSYYWGWIRQPPGKGLEWIGSISYSATTYYNPSLKSRVTISVDTSKNQFSLKLSSVTAADTAVYYCAGDPSYDSIAGMQVWGQGTTVTVSS VL: DIQLTQSPSSLSASVGDRVTITCRASQSISSYLNWYQQKPGKAPKLLIYAASNLQSGVPSRFSGSGSGTDFTLTISSLQPEDFATYYCQQSFDWPLTFGGGTKVEIK | – | – | 0.611 nM | 7.24e-05 s⁻¹ | 118000 M⁻¹ s⁻¹ | 0.494 nM | 7.84e-05 s⁻¹ | 159000 M⁻¹ s⁻¹ | 1.09 nM | 2 nM | – | – | – | – | – | 1.78 nM | 0.207 nM

These reach a lower Kd [3]. Values come first.

Row | IC50, endogenous hLTBP assay (CAGA12 luciferase) [1] | IC50, mLTBP1 assay (CAGA12 luciferase) [2] | Kd [3] | koff [3] | kon [3] | Kd [4] | koff [4] | kon [4] | Kd [5] | Kd [6] | Kd [7] | Kd [8] | IC50, endogenous hLTBP assay (CAGA12 luciferase) [9] | IC50, mLTBP1 assay (CAGA12 luciferase) [10] | binding result [11] | IC50, endogenous hLTBP assay (CAGA12 luciferase) [12] | IC50, mLTBP1 assay (CAGA12 luciferase) [13] | Binder
6 | – | – | 0.296 nM | 6e-05 s⁻¹ | 203000 M⁻¹ s⁻¹ | 0.235 nM | 6e-05 s⁻¹ | 255000 M⁻¹ s⁻¹ | 0.404 nM | 0.717 nM | 764 nM | 764 nM | 1.54 nM | 0.409 nM | – | – | – | SR-AB41 (antibody, IgG1, V domains shown, Cycle 3, lineage SR-AB23) VH: QVQLVESGGGVVQPGRSLRLSCAASGFTFRSYVMHWVRQAPGKGLEWVAVISHEGSLKYYADSVKGRFTISRDNSKNTLYLQMNSLRAEDTAVYYCARPRIAARRGGFGYWGQGTLVTVSS VL: NFMLTQPHSVSESPGKTVTISCTRSSGNIDNNYVQWYQQRPGSSPTTVIYEDNQRPSGVPDRFSGSIDSSSNSASLTISGLKTEDEADYYCQSYDYDNQAVVFGGGTKLTVL
7 | 0.909 nM | 0.423 nM | 0.231 nM | 6e-05 s⁻¹ | 259000 M⁻¹ s⁻¹ | 0.179 nM | 6.68e-05 s⁻¹ | 372000 M⁻¹ s⁻¹ | 0.417 nM | 0.45 nM | 73.5 nM | 73.5 nM | – | – | – | – | – | SR-AB34 (antibody, IgG1, V domains shown, Cycle 3, lineage SR-AB22) VH: QVQLVESGGGVVQPGRSLRLSCAASGFTFRSYVMHWVRQAPGKGLEWVAVISHEGSLKYYADSVKGRFTISRDNSKNTLYLQMNSLRAEDTAVYYCAVPRIAARRGGFGYWGQGTLVTVSS VL: NFMLTQPHSVSESPGKTVTISCTRSSGNIDNNYVQWYQQRPGSSPTTVIYEDNQRPSGVPDRFSGSIDSSSNSASLTISGLKTEDEADYYCQSYDYDAQGVVFGGGTKLTVL
8 | – | – | 0.214 nM | 6e-05 s⁻¹ | 280000 M⁻¹ s⁻¹ | 0.146 nM | 6e-05 s⁻¹ | 410000 M⁻¹ s⁻¹ | 0.21 nM | 0.407 nM | 212 nM | 212 nM | 1.51 nM | 0.3 nM | – | – | – | SR-AB44 (antibody, IgG1, V domains shown, Cycle 3, lineage SR-AB23) VH: QVQLVESGGGVVQPGRSLRLSCAASGFTFRSYVMHWVRQAPGKGLEWVAVISHEGSLKYYADSVKGRFTISRDNSKNTLYLQMNSLRAEDTAVYYCARPRIAARRGGFGYWGQGTLVTVSS VL: NFMLTQPHSVSESPGKTVTISCTRSHGNIDDNYVQWYQQRPGSSPTTVIYEDNVRPSGVPDRFSGSIDSSSNSASLTISGLKTEDEADYYCQSYDSDNQLVVFGGGTKLTVL
9 | 1.01 nM | 0.479 nM | 0.205 nM | 6e-05 s⁻¹ | 292000 M⁻¹ s⁻¹ | 0.136 nM | 6e-05 s⁻¹ | 441000 M⁻¹ s⁻¹ | 0.232 nM | 0.342 nM | 389 nM | 389 nM | – | – | – | – | – | SR-AB39 (antibody, IgG1, V domains shown, Cycle 3, lineage SR-AB22) VH: QVQLVESGGGVVQPGRSLRLSCAASGFTFRSYVMHWVRQAPGKGLEWVAVISHEGSLKYYADSVKGRFTISRDNSKNTLYLQMNSLRAEDTAVYYCAVPRIAARRGGFGYWGQGTLVTVSS VL: NFMLTQPHSVSESPGKTVTISCTRSSGLIDDNYVQWYQQRPGSSPTTVIYEDAQRPSGVPDRFSGSIDSSSNSASLTISGLKTEDEADYYCQSYDHDEQGVVFGGGTKLTVL
10 | – | – | 0.193 nM | 6e-05 s⁻¹ | 310000 M⁻¹ s⁻¹ | 0.122 nM | 6e-05 s⁻¹ | 491000 M⁻¹ s⁻¹ | 0.193 nM | 0.269 nM | 195 nM | 195 nM | 2.25 nM | 0.264 nM | – | – | – | SR-AB45 (antibody, IgG1, V domains shown, Cycle 3, lineage SR-AB23) VH: QVQLVESGGGVVQPGRSLRLSCAASGFTFRSYVMHWVRQAPGKGLEWVAVISHEGSLKYYADSVKGRFTISRDNSKNTLYLQMNSLRAEDTAVYYCARPRIAARRGGFGYWGQGTLVTVSS VL: NFMLTQPHSVSESPGKTVTISCTRSSGAIDDNYVQWYQQRPGSSPTTVIYEDFQRPSGVPDRFSGSIDSSSNSASLTISGLKTEDEADYYCQSYDDDLQGVVFGGGTKLTVL
